Results reported in patent US20230074436A1 (DENALI THERAPEUTICS, published 2023).
No end group written: not given here. *: point of attachment. Biotin = O=C1N[C@H]2[C@H](CS[C@H]2CCCCC(=O)*)N1

What was measured:
asyn_113-127_123A [1] = target: T1, asyn_113-127_123A (human); assay: Ala-scan peptide ELISA, row H, run 1
T1 construct: substitution is already in the entry; also called pep12
T1 peptide: Biotin-LEDMPVDPDNAAYEM
Protocol: (§1) 96-well Nunc plates were coated with 50 μL per well of 1 μg/mL streptavidin (from Jackson Immuno Research Laboratory) in PBS at 4° C. overnight. The plates were washed three times with PBST, and blocked with PBS containing 3% BSA at room temperature for 1 hour. The N-terminal biotinylated peptides were dissolved in Milli Q water to a concentration of 2 mg/mL, then further diluted to a concentration of 2 μg/mL with PBS. 50 μl of the diluted peptide was applied to the streptavidin-coated plates and incubated at 4° C. overnight. 2 μg/mL of biotinylated human alpha-synuclein was used as the positive control. The plates were washed three times with PBST before use. Purified antibody was diluted by serial dilution methods, from 20 μg/mL to 1 ng/mL, and 50 μL of the antibody solution was added to the peptide-coated wells. The plates were incubated for 1 hour at room temperature, then washed three times with PBST. Secondary detection antibody (goat anti-rat HRP (obtained from Southern Biotech)) was added with 1:5,000 dilutions and incubated for 1 hour at room temperature, then washed three times with PBST. Plates were developed with 50 μL/well of TMB substrate (Thermo Fisher) and quenched with 50 μL/well of 1 N sulfuric acid. The signal was quantified on a BioTek® plate reader at A450. A parallel repeat was performed for each peptide in a separate plate.

asyn_113-127_126A [2] = target: T2, asyn_113-127_126A (human); assay: Ala-scan peptide ELISA, row H, run 1
T2 construct: substitution is already in the entry; also called pep16
T2 peptide: Biotin-LEDMPVDPDNEAYAM
Protocol: as §1

asyn_113-127_115A [3] = target: T3, asyn_113-127_115A (human); assay: Ala-scan peptide ELISA, row H, run 1
T3 construct: substitution is already in the entry; also called pep4
T3 peptide: Biotin-LEAMPVDPDNEAYEM
Protocol: as §1

asyn_113-127_119A [4] = target: T4, asyn_113-127_119A (human); assay: Ala-scan peptide ELISA, row H, run 1
T4 construct: substitution is already in the entry; also called pep8
T4 peptide: Biotin-LEDMPVAPDNEAYEM
Protocol: as §1

asyn_113-127_125A [5] = target: T5, asyn_113-127_125A (human); assay: Ala-scan peptide ELISA, row H, run 1
T5 construct: substitution is already in the entry; also called pep15
T5 peptide: Biotin-LEDMPVDPDNEAAEM
Protocol: as §1

asyn_113-127_114A [6] = target: T6, asyn_113-127_114A (human); assay: Ala-scan peptide ELISA, row H, run 1
T6 construct: substitution is already in the entry; also called pep3
T6 peptide: Biotin-LADMPVDPDNEAYEM
Protocol: as §1

asyn_113-127_117A [7] = target: T7, asyn_113-127_117A (human); assay: Ala-scan peptide ELISA, row H, run 1
T7 construct: substitution is already in the entry; also called pep6
T7 peptide: Biotin-LEDMAVDPDNEAYEM
Protocol: as §1

asyn_113-127_118A [8] = target: T8, asyn_113-127_118A (human); assay: Ala-scan peptide ELISA, row H, run 1
T8 construct: substitution is already in the entry; also called pep7
T8 peptide: Biotin-LEDMPADPDNEAYEM
Protocol: as §1

asyn_113-127_113A [9] = target: T9, asyn_113-127_113A (human); assay: Ala-scan peptide ELISA, row H, run 1
T9 construct: substitution is already in the entry; also called pep2
T9 peptide: Biotin-AEDMPVDPDNEAYEM
Protocol: as §1

asyn_113-127_127A [10] = target: T10, asyn_113-127_127A (human); assay: Ala-scan peptide ELISA, row H, run 1
T10 construct: substitution is already in the entry; also called pep17
T10 peptide: Biotin-LEDMPVDPDNEAYEA
Protocol: as §1

asyn_113-127_120A [11] = target: T11, asyn_113-127_120A (human); assay: Ala-scan peptide ELISA, row H, run 1
T11 construct: substitution is already in the entry; also called pep9
T11 peptide: Biotin-LEDMPVDADNEAYEM
Protocol: as §1

asyn_113-127_122A [12] = target: T12, asyn_113-127_122A (human); assay: Ala-scan peptide ELISA, row H, run 1
T12 construct: substitution is already in the entry; also called pep11
T12 peptide: Biotin-LEDMPVDPDAEAYEM
Protocol: as §1

asyn_113-127_121A [13] = target: T13, asyn_113-127_121A (human); assay: Ala-scan peptide ELISA, row H, run 1
T13 construct: substitution is already in the entry; also called pep10
T13 peptide: Biotin-LEDMPVDPANEAYEM
Protocol: as §1

asyn_113-127 [14] = target: T14, asyn_113-127 (human); assay: Ala-scan peptide ELISA, row H, run 1
T14 construct: also called pep1
T14 peptide: Biotin-LEDMPVDPDNEAYEM
Protocol: as §1

[15] = target: T15, biotinylated human alpha-synuclein (human, UniProt P37840 1-140); assay: Ala-scan peptide ELISA, row H, run 1
Protocol: as §1

[16] = target: alpha-synuclein phosphorylated at serine 129 (human, UniProt P37840 1-140); assay: SPR (Biacore), antibody captured, p129-Syn injected
Protocol: Anti-mouse Fc antibody (obtained from GE Healthcare) was immobilized on the surface of a CM5 chip (obtained from GE Healthcare) through amine-coupling to reach about 6,000 to 8,000 response units (RU). The surface was activated by injection of a mixture of 1-ethyl-3-(3-dimethylaminopropyl)-carbodiimide (EDC) and N-hydroxysuccinimide (NETS), both obtained from GE Healthcare, for 7 minutes at room temperature. […] Both injections were done at room temperature.
Purified rat anti alpha-synuclein antibody (10 μg/mL) was injected at room temperature and captured to reach 1,000 to 2,000 RU. […] Sensorgrams were fitted using a 1:1 Langmuir model to estimate kₒₙ and koff.

[17] = target: human alpha-synuclein pre-formed fibrils (human, UniProt P37840 1-140); assay: competition ELISA: fibrils titrated in solution against 0.6 nM antibody, free antibody read on aSyn-coated plate
Protocol: Purified antibody was probed with different concentrations of alpha-synuclein fibrils in solution, and the levels of unbound antibody were measured by ELISA analysis. In this experiment, 0.6 nM (0.1 μg/mL) of purified antibody was dissolved in phosphate-buffered saline (PBS) solution. […] The mixtures were gently shaken at room temperature for 1 hour to reach equilibrium. After that, these samples were transferred to an alpha-synuclein protein-coated ELISA plate and incubated for 5 minutes. During this short incubation, antibody that was not associated to antigen in the previous solution could instead bind onto the plate, and thus be quantified using a standard ELISA technique. By this means, it was possible to determine the amount of free antibody in the initial mixture with alpha-synuclein fibrils at indicated concentrations.

asyn_113-127_124P = target: T16, asyn_113-127_124P (human); assay: Ala-scan peptide ELISA, row F, run 1
T16 construct: substitution is already in the entry; also called pep14
T16 peptide: Biotin-LEDMPVDPDNEPYEM
Protocol: as §1

asyn_113-127_123A [18] = target: T1, asyn_113-127_123A; assay: Ala-scan peptide ELISA, row F, run 1
Protocol: as §1

asyn_113-127_126A [19] = target: T2, asyn_113-127_126A; assay: Ala-scan peptide ELISA, row F, run 1
Protocol: as §1

asyn_113-127_115A [20] = target: T3, asyn_113-127_115A; assay: Ala-scan peptide ELISA, row F, run 1
Protocol: as §1

asyn_113-127_124G = target: T17, asyn_113-127_124G (human); assay: Ala-scan peptide ELISA, row F, run 1
T17 construct: substitution is already in the entry; also called pep13
T17 peptide: Biotin-LEDMPVDPDNEGYEM
Protocol: as §1

asyn_113-127_119A [21] = target: T4, asyn_113-127_119A; assay: Ala-scan peptide ELISA, row F, run 1
Protocol: as §1

asyn_113-127_125A [22] = target: T5, asyn_113-127_125A; assay: Ala-scan peptide ELISA, row F, run 1
Protocol: as §1

asyn_113-127_114A [23] = target: T6, asyn_113-127_114A; assay: Ala-scan peptide ELISA, row F, run 1
Protocol: as §1

asyn_113-127_117A [24] = target: T7, asyn_113-127_117A; assay: Ala-scan peptide ELISA, row F, run 1
Protocol: as §1

asyn_113-127_118A [25] = target: T8, asyn_113-127_118A; assay: Ala-scan peptide ELISA, row F, run 1
Protocol: as §1

asyn_113-127_113A [26] = target: T9, asyn_113-127_113A; assay: Ala-scan peptide ELISA, row F, run 1
Protocol: as §1

asyn_113-127_127A [27] = target: T10, asyn_113-127_127A; assay: Ala-scan peptide ELISA, row F, run 1
Protocol: as §1

asyn_113-127_120A [28] = target: T11, asyn_113-127_120A; assay: Ala-scan peptide ELISA, row F, run 1
Protocol: as §1

asyn_113-127_122A [29] = target: T12, asyn_113-127_122A; assay: Ala-scan peptide ELISA, row F, run 1
Protocol: as §1

asyn_113-127_116A = target: T18, asyn_113-127_116A (human); assay: Ala-scan peptide ELISA, row F, run 1
T18 construct: substitution is already in the entry; also called pep5
T18 peptide: Biotin-LEDAPVDPDNEAYEM
Protocol: as §1

asyn_113-127_121A [30] = target: T13, asyn_113-127_121A; assay: Ala-scan peptide ELISA, row F, run 1
Protocol: as §1

asyn_113-127 [31] = target: T14, asyn_113-127; assay: Ala-scan peptide ELISA, row F, run 1
Protocol: as §1

[32] = target: T15, biotinylated human alpha-synuclein; assay: Ala-scan peptide ELISA, row F, run 1
Protocol: as §1

B1: 20H4 (antibody, rat IgG2b, V domains shown)
VH: AVQLVESGGGLVQPKESLKISCAASGFTFSNAAMYWVRQAPGKGLELLARIRTKPNNYATYHADSVKGRFTISRDDSQSMVYLHMGNLKTEDTAMYYCTADMATGDYWGPGVMVTVSS
VL: DIQMTQSPPVLSVSVGDRVTLSCKASQNINKNLDWYQQKHGEAPKPLIYSTNNLQTGVPSRFSGSGSGTDYTLTISSLQPEDVATYYCYQYKSAWTFGGGTKLELR
notes: also called clone 20H4; rat 20H4
asyn_113-127_123A [1]
  A450: 0.068 OD
asyn_113-127_126A [2]
  A450: 0.07 OD
asyn_113-127_115A [3]
  A450: 0.051 OD
asyn_113-127_119A [4]
  A450: 0.048 OD
asyn_113-127_125A [5]
  A450: 0.047 OD
asyn_113-127_114A [6]
  A450: 0.061 OD
asyn_113-127_117A [7]
  A450: 0.071 OD
asyn_113-127_118A [8]
  A450: 0.069 OD
asyn_113-127_113A [9]
  A450: 0.068 OD
asyn_113-127_127A [10]
  A450: 0.066 OD
asyn_113-127_120A [11]
  A450: 0.063 OD
asyn_113-127_122A [12]
  A450: 0.049 OD
asyn_113-127_121A [13]
  A450: 0.068 OD
asyn_113-127 [14]
  A450: 0.063 OD
[15]
  A450: 0.086 OD
[16]
  Kd: 6.14 nM
[17]
  IC50: 1.73 nM
asyn_113-127_124P
  A450: 0.044 OD
asyn_113-127_123A [18]
  A450: 0.171 OD
asyn_113-127_126A [19]
  A450: 0.149 OD
asyn_113-127_115A [20]
  A450: 0.089 OD
asyn_113-127_124G
  A450: 0.145 OD
asyn_113-127_119A [21]
  A450: 0.05 OD
asyn_113-127_125A [22]
  A450: 0.044 OD
asyn_113-127_114A [23]
  A450: 0.153 OD
asyn_113-127_117A [24]
  A450: 0.174 OD
asyn_113-127_118A [25]
  A450: 0.169 OD
asyn_113-127_113A [26]
  A450: 0.151 OD
asyn_113-127_127A [27]
  A450: 0.144 OD
asyn_113-127_120A [28]
  A450: 0.132 OD
asyn_113-127_122A [29]
  A450: 0.05 OD
asyn_113-127_116A
  A450: 0.172 OD
asyn_113-127_121A [30]
  A450: 0.153 OD
asyn_113-127 [31]
  A450: 0.149 OD
[32]
  A450: 0.243 OD
